# Test results: the supplement of paper PMC5998384
# How the values were obtained:
# HeLa Kyoto [1] = assay: solubility change mitosis vs G1/S (difference of NP-40 vs SDS log2 ratios) (log2 ratio difference); higher = more soluble in mitosis
# HeLa Kyoto [2] = assay: solubility in G1/S (NP-40 vs SDS abundance) (log2 ratio); higher = more soluble; conditions: cell cycle stage: G1/S
# 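For solubility change mitosis vs G1/S (difference of NP-40 vs SDS log2 ratios) in this document: synchronized HeLa Kyoto cells (double thymidine block for G1/S, nocodazole release for mitosis), protein amounts in NP-40 versus SDS lysates quantified by mass spectrometry, three biological replicates.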
# 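For solubility in G1/S (NP-40 vs SDS abundance) in this document: HeLa Kyoto cells arrested at G1/S by double thymidine block, proteins quantified by TMT10plex mass spectrometry in mild NP-40 versus SDS extracts, three biological replicates.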
Sequence,solubility change mitosis (log2) (HeLa Kyoto [1]),solubility in G1/S (log2) (HeLa Kyoto [2])
MRSRSNSGVRLDGYARLVQQTILCHQNPVTGLLPASYDQKDAWVRDNVYSILAVWGLGLAYRKNADRDEDKAKAYELEQSVVKLMRGLLHCMIRQVDKVESFKYSQSTKDSLHAKYNTKTCATVVGDDQWGHLQLDATSVYLLFLAQMTASGLHIIHSLDEVNFIQNLVFYIEAAYKTADFGIWERGDKTNQGISELNASSVGMAKAALEALDELDLFGVKGGPQSVIHVLADEVQHCQSILNSLLPRASTSKEVDASLLSVVSFPAFAVEDSQLVELTKQEIITKLQGRYGCCRFLRDGYKTPKEDPNRLYYEPAELKLFENIECEWPLFWTYFILDGVFSGNAEQVQEYKEALEAVLIKGKNGVPLLPELYSVPPDRVDEEYQNPHTVDRVPMGKLPHMWGQSLYILGSLMAEGFLAPGEIDPLNRRFSTVPKPDVVVQVSILAETEEIKTILKDKGIYVETIAEVYPIRVQPARILSHIYSSLGCNNRMKLSGRPYRHMGVLGTSKLYDIRKTIFTFTPQFIDQQQFYLALDNKMIVEMLRTDLSYLCSRWRMTGQPTITFPISHSMLDEDGTSLNSSILAALRKMQDGYFGGARVQTGKLSEFLTTSCCTHLSFMDPGPEGKLYSEDYDDNYDYLESGNWMNDYDSTSHARCGDEVARYLDHLLAHTAPHPKLAPTSQKGGLDRFQAAVQTTCDLMSLVTKAKELHVQNVHMYLPTKLFQASRPSFNLLDSPHPRQENQVPSVRVEIHLPRDQSGEVDFKALVLQLKETSSLQEQADILYMLYTMKGPDWNTELYNERSATVRELLTELYGKVGEIRHWGLIRYISGILRKKVEALDEACTDLLSHQKHLTVGLPPEPREKTISAPLPYEALTQLIDEASEGDMSISILTQEIMVYLAMYMRTQPGLFAEMFRLRIGLIIQVMATELAHSLRCSAEEATEGLMNLSPSAMKNLLHHILSGKEFGVERSVRPTDSNVSPAISIHEIGAVGATKTERTGIMQLKSEIKQVEFRRLSISAESQSPGTSMTPSSGSFPSAYDQQSSKDSRQGQWQRRRRLDGALNRVPVGFYQKVWKVLQKCHGLSVEGFVLPSSTTREMTPGEIKFSVHVESVLNRVPQPEYRQLLVEAILVLTMLADIEIHSIGSIIAVEKIVHIANDLFLQEQKTLGADDTMLAKDPASGICTLLYDSAPSGRFGTMTYLSKAAATYVQEFLPHSICAMQ [PHKA1],-0.332,0.037
MRTEAEAAGPPLEPGDFVQLPVPVIQQLYHWDCGLACSRMVLRYLGQLDDSEFERALQKLQLTRSIWTIDLAYLMHHFGVRHRFCTQTLGVDKGYKNQSFYRKHFDTEETRVNQLFAQAKACKVLVEKCTVSVKDIQAHLAQGHVAIVLVNSGVLHCDLCSSPVKYCCFTPSGHHCFCRTPDYQGHFIVLRGYNRATGCIFYNNPAYADPGMCSTSISNFEEARTSYGTDEDILFVYLDS [GUCD1],-0.00182,-0.455
MSCTIEKALADAKALVERLRDHDDAAESLIEQTTALNKRVEAMKQYQEEIQELNEVARHRPRSTLVMGIQQENRQIRELQQENKELRTSLEEHQSALELIMSKYREQMFRLLMASKKDDPGIIMKLKEQHSKIDMVHRNKSEGFFLDASRHILEAPQHGLERRHLEANQNELQAHVDQITEMAAVMRKAIEIDEQQGCKEQERIFQLEQENKGLREILQITRESFLNLRKDDASESTSLSALVTNSDLSLRKS [FGFR1OP2],0.0581,0.209
MSDRKAVIKNADMSEDMQQDAVDCATQAMEKYNIEKDIAAYIKKEFDKKYNPTWHCIVGRNFGSYVTHETKHFIYFYLGQVAILLFKSG [DYNLL2],0.249,-0.415
MSEARGEPGSGPEAGARFFCTAGRGLEPFVMREVRARLAATQVEYISGKVFFTTCSDLNMLKKLKSAERLFLLIKKQFPLIISSVSKGKIFNEMQRLINEDPGSWLNAISIWKNLLELDAKKEKLSQRDDNQLKRKVGENEIIAKKLKIEQMQKIEENRDCQLEKQIKEETLEQRDFTTKSEKFQEEEFQNDIEKAIDTHNQNDLTFRVSCRCSGTIGKAFTAQEVGKVIGIAIMKHFGWKADLRNPQLEIFIHLNDIYSVVGIPVFRVSLASRAYIKTAGLRSTIAWAMASLADIKAGAFVLDPMCGLGTILLEAAKEWPDVYYVGADVSDSQLLGTWDNLKAAGLEDKIELLKISVIELPLPSESVDIIISDIPFGKKFKLGKDIKSILQEMERVLHVGGTIVLLLSEDHHRRLTDCKESNIPFNSKDSHTDEPGIKKCLNPEEKTGAFKTASTSFEASNHKFLDRMSPFGSLVPVECYKVSLGKTDAFICKYKKSHSSGL [THUMPD2],-0.134,0.0337
MSFLFSSRSSKTFKPKKNIPEGSHQYELLKHAEATLGSGNLRQAVMLPEGEDLNEWIAVNTVDFFNQINMLYGTITEFCTEASCPVMSAGPRYEYHWADGTNIKKPIKCSAPKYIDYLMTWVQDQLDDETLFPSKIGVPFPKNFMSVAKTILKRLFRVYAHIYHQHFDSVMQLQEEAHLNTSFKHFIFFVQEFNLIDRRELAPLQELIEKLGSKDR [MOB1A],-0.11,0.448
MSGGGTETPVGCEAAPGGGSKKRDSLGTAGSAHLIIKDLGEIHSRLLDHRPVIQGETRYFVKEFEEKRGLREMRVLENLKNMIHETNEHTLPKCRDTMRDSLSQVLQRLQAANDSVCRLQQREQERKKIHSDHLVASEKQHMLQWDNFMKEQPNKRAEVDEEHRKAMERLKEQYAEMEKDLAKFSTF [BLOC1S5],-0.0624,0.438
MSGRSVRAETRSRAKDDIKKVMAAIEKVRKWEKKWVTVGDTSLRIFKWVPVTDSKEKEKSKSNSSAAREPNGFPSDASANSSLLLEFQDENSNQSSVSDVYQLKVDSSTNSSPSPQQSESLSPAHTSDFRTDDSQPPTLGQEILEEPSLPSSEVADEPPTLTKEEPVPLETQVVEEEEDSGAPPLKRFCVDQPTVPQTASES [BCL7B],0.0126,0.295
MSGTSKESLGHGGLPGLGKTCLTTMDTKLNMLNEKVDQLLHFQEDVTEKLQSMCRDMGHLERGLHRLEASRAPGPGGADGVPHIDTQAGWPEVLELVRAMQQDAAQHGARLEALFRMVAAVDRAIALVGATFQKSKVADFLMQGRVPWRRGSPGDSPEENKERVEEEGGKPKHVLSTSGVQSDAREPGEESQKADVLEGTAERLPPIRASGLGADPAQAVVSPGQGDGVPGPAQAFPGHLPLPTKVEAKAPETPSENLRTGLELAPAPGRVNVVSPSLEVAPGAGQGASSSRPDPEPLEEGTRLTPGPGPQCPGPPGLPAQARATHSGGETPPRISIHIQEMDTPGEMLMTGRGSLGPTLTTEAPAAAQPGKQGPPGTGRCLQAPGTEPGEQTPEGARELSPLQESSSPGGVKAEEEQRAGAEPGTRPSLARSDDNDHEVGALGLQQGKSPGAGNPEPEQDCAARAPVRAEAVRRMPPGAEAGSVVLDDSPAPPAPFEHRVVSVKETSISAGYEVCQHEVLGGGRFGQVHRCTEKSTGLPLAAKIIKVKSAKDREDVKNEINIMNQLSHVNLIQLYDAFESKHSCTLVMEYVDGGELFDRITDEKYHLTELDVVLFTRQICEGVHYLHQHYILHLDLKPENILCVNQTGHQIKIIDFGLARRYKPREKLKVNFGTPEFLAPEVVNYEFVSFPTDMWSVGVITYMLLSGLSPFLGETDAETMNFIVNCSWDFDADTFEGLSEEAKDFVSRLLVKEKSCRMSATQCLKHEWLNNLPAKASRSKTRLKSQLLLQKYIAQRKWKKHFYVVTAANRLRKFPTSP [MYLK3],-0.0471,-0.00349
MSKKKGLSAEEKRTRMMEIFSETKDVFQLKDLEKIAPKEKGITAMSVKEVLQSLVDDGMVDCERIGTSNYYWAFPSKALHARKHKLEVLESQLSEGSQKHASLQKSIEKAKIGRCETEERTRLAKELSSLRDQREQLKAEVEKYKDCDPQVVEEIRQANKVAKEAANRWTDNIFAIKSWAKRKFGFEENKIDRTFGIPEDFDYID [MND1],-0.05,0.61
